# Measured values as given in patent US10501502B2, “Allophycocyanin alpha-subunit evolved labeling proteins (smURFPs)” (The Regents of the University of California, priority 2016, dated 2019).
# Legend:
# [1] = Incorporation rates in vitro of BV on initially chromophore-free smURFP; assay type: biochemical
# Description: EX and EM spectra were obtained using SPEX Fluorolog fluorometer (Horiba). Absorbance spectra were obtained using UV-VIS Spectrophotometer Cary Eclipse (Varian) or UV-2700 (Shimadzu). Quantum yield was determined relative to Cy5. Incorporation rates of BV on 0.5 μM smURFP was performed by addition of smURFP to PBS alone or with 20% fetal bovine serum (FBS) and mixed by pipetting in a quartz cuvette. Chromophore was added last, mixed by pipetting, and fluorescence was recorded using SPEX Fluorolog fluorometer (Horiba). Photobleaching was characterized on bubbles of purified FP or Cy5 within mineral oil using light from a 150 W xenon arc lamp with 100% light through EX/EM=628(40)/680(30) nm for smURFP, TDsmURFP, and Cy5 or EX/EM=665 (45)/725 (50) nm for IFP 1.4 focused with a 40×, 1.2 numerical aperture C-Apochromat oil-immersion lens on a Zeiss Axiovert 200M inverted microscope. Photobleaching times were normalized to reflect an initial illumination intensity producing 1,000 photons per fluorescent molecule per second as previously described^37.
# HT1080 tumor xenografts = assay: Fluorescence imaging of HT1080 tumor xenografts in vivo; set-up: species or system mice
# From the text: HT1080 cells were infected with CMV with smURFP-T2A-mCherry, smURFP-T2A-mCardinal, smURFP, and mCardinal lentiviruses in culture, and expression was verified by fluorescence imaging (FIG. 19a, ≥99% efficiency and FIG. 20a, ≥95% efficiency) using filters described in the previous section. All procedures using mice were approved by UCSD IACUC (#S03172M) and are consistent with the recommendations of the American Veterinary Medical Association. One million HT1080 cells expressing smURFP-T2A-mCherry were injected subcutaneously into the lateral, ventral, and upper right and left quadrant, or smURFP and mCardinal were injected subcutaneously into the lateral, dorsal, and lower right and left quadrant of four 5-week-old athymic nude female mice. Tumors were allowed to grow until ˜0.1-1 cm in diameter (˜2 weeks). Mice were anesthetized with isoflurane (1.5%) at a 2 liter/min flow, injected with ketamine-midazolam (intraperitoneal (IP), 80 mg/kg, 4 mg/kg), placed on a heated pad, and imaged before exogenous BV injection. 250 nmol BV was injected by intravenous (IV) tail vein, and mice were imaged 5, 30, 60, and 120 min after BV injection for smURFP-T2A-mCherry. 250 nmol BV or BVMe2 was injected by intravenous tail vein, and mice were imaged 60 min, 24 h, and 48 h after BV injection for smURFP and mCardinal tumors. Mice were imaged using a Maestro in vivo Imaging System (Cambridge Research & Instrumentation, CRI). FPs were imaged with the following filters: mCherry, EX/EM=590(23)/615LP nm and liquid crystal, 620 nm; mCardinal EX/EM=607(36)645LP nm and liquid crystal, 660 nm; and smURFP EX/EM=620(20)/645LP nm or EX/EM=640(47)/700LP and liquid crystal, 710 nm. […] Tumors were removed, washed 2× in 2 ml DMEM+10% FBS, labeled in 2 ml DMEM+10% FBS+10 μM BV or BVMe2 at 4° C. for 24 h, imaged, labeled in 2 ml DMEM+10% FBS+10 μM BV or BVMe2 at 37° C. for 24 h, and imaged (FIG. 20g).
# [2] = 0.5 μM smURFP in PBS + 20% FBS, + 0.1 μM BV
# [3] = 0.5 μM smURFP in PBS + 20% FBS, + 0.1 μM BV (pH 9.4)
# [4] = 0.5 μM smURFP in PBS + 20% FBS, + 0.1 μM BV + 1 mM DTT
# [5] = 0.5 μM smURFP in PBS + 20% FBS, + 1 μM BV
# [6] = 0.5 μM smURFP in PBS + 20% FBS, + 1 μM BV (pH 9.4)
# [7] = 0.5 μM smURFP in PBS + 20% FBS, + 1 μM BV + 1 mM DTT
# [8] = 0.5 μM smURFP in PBS + 20% FBS, + 10 μM BV
# [9] = 0.5 μM smURFP in PBS + 20% FBS, + 10 μM BV (pH 9.4)
# [10] = 0.5 μM smURFP in PBS + 20% FBS, + 10 μM BV + 1 mM DTT
# [11] = 0.5 μM smURFP in PBS + 20% FBS, Avg. 3 Conc.
# [12] = 0.5 μM smURFP in PBS + 20% FBS, Avg. 3 Conc. (pH 9.4)
# [13] = 0.5 μM smURFP in PBS + 20% FBS, Avg. 3 Conc. + 1 mM DTT
# [14] = 0.5 μM smURFP in PBS, + 0.1 μM BV
# [15] = 0.5 μM smURFP in PBS, + 0.1 μM BV (pH 8)
# [16] = 0.5 μM smURFP in PBS, + 0.1 μM BV + 1 mM DTT
# [17] = 0.5 μM smURFP in PBS, + 1 μM BV
# [18] = 0.5 μM smURFP in PBS, + 1 μM BV (pH 8)
# [19] = 0.5 μM smURFP in PBS, + 1 μM BV + 1 mM DTT
# [20] = 0.5 μM smURFP in PBS, + 10 μM BV
# [21] = 0.5 μM smURFP in PBS, + 10 μM BV (pH 8)
# [22] = 0.5 μM smURFP in PBS, + 10 μM BV + 1 mM DTT
# [23] = 0.5 μM smURFP in PBS, Avg. 3 Conc.
# [24] = 0.5 μM smURFP in PBS, Avg. 3 Conc. (pH 8)
# [25] = 0.5 μM smURFP in PBS, Avg. 3 Conc. + 1 mM DTT
molecule,measurement,setting,value
"smURFP: small ultra-red fluorescent protein, SEQ ID NO: 13, homodimer, covalently attaches biliverdin (protein, homodimer; biliverdin chromophore; smRUFP Variant Polypeptide) MKTSEQRVNIATLLTENKKKIVDKASQDLWRRHPDLIAPGGIAFSQRDRALCLRDYGWFLHLITFCLLAGDKGPIESIGLISIREMYNSLGVPVPAMMESIRCLKEASLSLLDEEDANETAPYFDYIIKAMS",A,[1]; [2],1.1
same,T50%,[1]; [2],43 min
same,k,[1]; [2],0.016 min⁻¹
same,A,[1]; [3],0.95
same,T50%,[1]; [3],7.1 min
same,k,[1]; [3],0.097 min⁻¹
same,A,[1]; [4],0.95
same,T50%,[1]; [4],30 min
same,k,[1]; [4],0.023 min⁻¹
same,A,[1]; [5],1.1
same,T50%,[1]; [5],58 min
same,k,[1]; [5],0.012 min⁻¹
same,A,[1]; [6],0.99
same,T50%,[1]; [6],16 min
same,k,[1]; [6],0.043 min⁻¹
same,A,[1]; [7],0.95
same,T50%,[1]; [7],32 min
same,k,[1]; [7],0.022 min⁻¹
same,A,[1]; [8],1.1
same,T50%,[1]; [8],46 min
same,k,[1]; [8],0.015 min⁻¹
same,A,[1]; [9],0.99
same,T50%,[1]; [9],11 min
same,k,[1]; [9],0.063 min⁻¹
same,A,[1]; [10],0.96
same,T50%,[1]; [10],16 min
same,k,[1]; [10],0.043 min⁻¹
same,A,[1]; [11],1.1
same,T50%,[1]; [11],50 min
same,k,[1]; [11],0.014 min⁻¹
same,A,[1]; [12],0.98
same,T50%,[1]; [12],11 min
same,k,[1]; [12],0.066 min⁻¹
same,A,[1]; [13],0.95
same,T50%,[1]; [13],24 min
same,k,[1]; [13],0.029 min⁻¹
same,A,[1]; [14],1.1
same,T50%,[1]; [14],29 min
same,k,[1]; [14],0.024 min⁻¹
same,A,[1]; [15],1.1
same,T50%,[1]; [15],24 min
same,k,[1]; [15],0.029 min⁻¹
same,A,[1]; [16],1.1
same,T50%,[1]; [16],58 min
same,k,[1]; [16],0.012 min⁻¹
same,A,[1]; [17],1.1
same,T50%,[1]; [17],46 min
same,k,[1]; [17],0.015 min⁻¹
same,A,[1]; [18],1.1
same,T50%,[1]; [18],24 min
same,k,[1]; [18],0.029 min⁻¹
same,A,[1]; [19],1.1
same,T50%,[1]; [19],63 min
same,k,[1]; [19],0.011 min⁻¹
same,A,[1]; [20],1.1
same,T50%,[1]; [20],46 min
same,k,[1]; [20],0.015 min⁻¹
same,A,[1]; [21],1.1
same,T50%,[1]; [21],22 min
same,k,[1]; [21],0.032 min⁻¹
same,A,[1]; [22],1.1
same,T50%,[1]; [22],46 min
same,k,[1]; [22],0.015 min⁻¹
same,A,[1]; [23],1.0
same,T50%,[1]; [23],39 min
same,k,[1]; [23],0.018 min⁻¹
same,A,[1]; [24],1.1
same,T50%,[1]; [24],2 min
same,k,[1]; [24],0.030 min⁻¹
same,A,[1]; [25],1.1
same,T50%,[1]; [25],53 min
same,k,[1]; [25],0.013 min⁻¹
same,chromophore maturation or attachment t50%,[1]; BV attachment,39^ min
same,fluorescence change after 250 nmol BV intravenously,HT1080 tumor xenografts; after 2 h,no increase in fluorescence
same,fold dimmer than mCardinal in vivo,HT1080 tumor xenografts; at 607 nm,~7.3 fold
same,fold dimmer than mCardinal in vivo,HT1080 tumor xenografts; at 640 nm,~4 fold
same,fluorescence of excised tumors with 10 μM BV or BVMe2,HT1080 tumor xenografts; ex vivo,enhanced fluorescence
same,fluorescence in tumor xenografts without exogenous BV,"HT1080 tumor xenografts; mouse, in vivo",visible without exogenous BV
same,loss of fluorescence through the skin,"HT1080 tumor xenografts; mouse, in vivo",25%
same,fluorescence change after injection of 250 nmol BV or BVMe2,HT1080 tumor xenografts; smURFP vs mCardinal tumors,no increase in fluorescence in vivo
same,fluorescence intensity relative to mCherry in vivo,HT1080 tumor xenografts; without exogenous BV,35%
